How the values were obtained:
[1] = target: C-terminal SNAP-tagged H3.3 K27M (UniProt P84243)
[2] = target: C-terminal SNAP-tagged H3.3 G34R (UniProt P84243)

Polynucleotide Kinase 3′-Phosphatase (PNKP)
NHEJ activity by random plasmid integration assay upon knockdown of PNKP [1]: it does reduce NHEJ in H3.3K27M and G34R cells | NHEJ activity by random plasmid integration assay upon knockdown of PNKP [2]: it does reduce NHEJ in H3.3K27M and G34R cells

Reference: patent US20250257357
